[ ]: non-standard residue; d: D form.
Target: (7× His)-PSD-95-PDZ2 wild type (UniProt P78352)
Assay: FP competition

(7× His)-PSD-95-PDZ2 wild type, sequence (P78352 160-246): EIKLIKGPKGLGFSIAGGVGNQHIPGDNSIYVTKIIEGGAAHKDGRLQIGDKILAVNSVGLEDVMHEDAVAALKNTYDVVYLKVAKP

Ki: 3.76 µM
Relative Ki (Ki mut/Ki WT): 2.51
Binder: cyclo(THLETTFTGDGMPKTIRVTQ[dP]GQ) (ring closure inferred; not fully specified) [cyclic nNOS β-hairpin peptide T116M]
